# PMC6309729
# Read-outs that look alike come from different tables or passages of the source.
# Tests used:
# FtsY (Escherichia coli) = FtsY (Escherichia coli) (UniProt P10121); settings: cited from earlier work
# [1] = molecular target: cpSRP54 (chloroplast SRP54), wildtype (Arabidopsis thaliana) (UniProt P37107); assay: GTPase inhibition assay
# [2] = molecular target: cpSRP54 (chloroplast SRP54), wildtype (Arabidopsis thaliana) (UniProt P37107); assay: GTPase inhibition assay; remark: listed apart in the source
# [3] = molecular target: cpSRP54 (chloroplast SRP54), wildtype (Arabidopsis thaliana) (UniProt P37107)
# cpFtsY(321C)-DACM = cpFtsY(321C)-DACM (UniProt O80842); assay: FRET or BRET
# [4] = molecular target: cpFtsY(A168W) labeled for FRET; assay: FRET or BRET
# [5] = molecular target: cpFtsY (chloroplast SRP receptor), wildtype (UniProt O80842)
# [6] = molecular target: cpFtsY (chloroplast SRP receptor), wildtype (UniProt O80842); assay: GTPase inhibition assay
# [7] = molecular target: cpFtsY (chloroplast SRP receptor), wildtype (UniProt O80842); assay: GTPase inhibition assay; remark: listed apart in the source
# Chain of cpSRP54 (chloroplast SRP54), wildtype (Arabidopsis thaliana) (P37107 76-564): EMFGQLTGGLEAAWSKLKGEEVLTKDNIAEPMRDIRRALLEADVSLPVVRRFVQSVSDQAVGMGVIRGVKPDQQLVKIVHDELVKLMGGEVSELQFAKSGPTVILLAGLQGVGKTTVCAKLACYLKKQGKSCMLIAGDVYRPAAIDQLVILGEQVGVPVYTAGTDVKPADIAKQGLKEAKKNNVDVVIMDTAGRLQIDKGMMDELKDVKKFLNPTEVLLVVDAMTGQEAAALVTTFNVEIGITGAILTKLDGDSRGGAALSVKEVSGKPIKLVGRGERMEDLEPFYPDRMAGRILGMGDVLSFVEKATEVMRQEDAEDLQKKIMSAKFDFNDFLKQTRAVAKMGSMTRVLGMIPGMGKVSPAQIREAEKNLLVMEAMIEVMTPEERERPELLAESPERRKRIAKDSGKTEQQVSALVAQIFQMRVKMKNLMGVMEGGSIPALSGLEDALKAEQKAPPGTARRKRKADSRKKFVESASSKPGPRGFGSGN
# Chain of Ffh (P0AGD7 whole entry): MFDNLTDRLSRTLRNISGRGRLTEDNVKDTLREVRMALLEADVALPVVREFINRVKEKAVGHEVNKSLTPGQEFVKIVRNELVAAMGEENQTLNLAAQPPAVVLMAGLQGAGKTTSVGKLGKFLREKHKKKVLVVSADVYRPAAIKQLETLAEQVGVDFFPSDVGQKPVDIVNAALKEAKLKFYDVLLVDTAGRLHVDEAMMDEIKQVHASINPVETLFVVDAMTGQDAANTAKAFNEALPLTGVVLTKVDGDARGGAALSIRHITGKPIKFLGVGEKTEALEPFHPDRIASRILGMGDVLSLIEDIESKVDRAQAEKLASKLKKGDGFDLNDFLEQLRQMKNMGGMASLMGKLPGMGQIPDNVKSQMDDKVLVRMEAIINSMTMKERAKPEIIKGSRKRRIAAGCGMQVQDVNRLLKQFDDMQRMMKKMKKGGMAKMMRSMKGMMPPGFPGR
# Chain of FtsY (Escherichia coli) (P10121 2-497): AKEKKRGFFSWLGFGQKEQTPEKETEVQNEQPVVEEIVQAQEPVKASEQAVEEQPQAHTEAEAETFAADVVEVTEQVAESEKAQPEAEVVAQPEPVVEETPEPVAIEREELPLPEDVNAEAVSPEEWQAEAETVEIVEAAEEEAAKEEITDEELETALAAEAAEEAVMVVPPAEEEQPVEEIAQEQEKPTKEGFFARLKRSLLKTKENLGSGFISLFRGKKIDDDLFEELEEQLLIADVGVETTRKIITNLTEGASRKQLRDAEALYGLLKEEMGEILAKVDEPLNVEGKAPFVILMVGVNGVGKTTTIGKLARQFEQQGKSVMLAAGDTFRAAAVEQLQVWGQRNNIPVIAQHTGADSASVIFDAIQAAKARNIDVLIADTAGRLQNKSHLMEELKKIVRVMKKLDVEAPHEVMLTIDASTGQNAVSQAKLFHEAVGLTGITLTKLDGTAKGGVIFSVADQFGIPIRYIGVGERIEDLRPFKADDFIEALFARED
substance,measurement,setting,value
Ffh (from UniProt P0AGD7),Kd,FtsY (Escherichia coli),6000 nM
cpFtsY(A168W) (natural protein),Ki,[1],230 nM
same,Ki,[2],< 200 nM
cpFtsY(F165A) (natural protein),kcat/Km of the reciprocally stimulated GTPase reaction,[3],633000 M⁻¹ s⁻¹
cpFtsY(R166A) (natural protein),kcat/Km of the reciprocally stimulated GTPase reaction,[3],14800 M⁻¹ s⁻¹
same,Ki,[1],3200 nM
cpSRP54(234C)-BODIPY-FL (from UniProt P37107 76-564) (natural protein),Kd,cpFtsY(321C)-DACM,7000 nM
same,kon,cpFtsY(321C)-DACM,500000 M⁻¹ s⁻¹
same,Kd,[4],350 nM
cpSRP54(A142W) (natural protein),Km of the reciprocally stimulated GTPase reaction,[5],0.24 µM
same,kcat/Km of the reciprocally stimulated GTPase reaction,[5],46700 M⁻¹ s⁻¹
same,Ki,[6],110 nM
same,Ki,[7],< 200 nM
cpSRP54(D137A) (natural protein),kcat/Km of the reciprocally stimulated GTPase reaction,[5],3170 M⁻¹ s⁻¹
same,Ki,[6],2000 nM
cpSRP54(R140A) (natural protein),kcat/Km of the reciprocally stimulated GTPase reaction,[5],9000 M⁻¹ s⁻¹
same,Ki,[6],510 nM
